The source of these data is US20050064507A1, “Determining kinase specificity” (priority 2003, published 2005).

Holding throughout (assay type): biochemical
Conditions in all cases: normalized to best substrate

One test concerns the target T1, PKC-delta (Homo sapiens, UniProt Q05655).
T1 construct: purchased Calbiochem
The test is described as follows: In vitro kinase assay: peptide phosphorylation by PKC-delta.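 Further: peptide concentration 10 nM.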 Summed up:
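Biotin-Lys-dansyl-Lys-Pro-Pro-Gly-linked proteomic peptides (12–21-residue core) phosphorylated by PKC-delta in HEPES/Triton/CaCl2/MgCl2 buffer with phosphatidyl serine and PMA, 100 μM [γ-32P]ATP, 30° C., ~10 min, stoichiometry ≤5%; streptavidin-plate capture. Signal normalized as % of best peptide substrate.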

A further test concerns the target T2, PKC-alpha (Homo sapiens, UniProt P17252).
T2 construct: purchased Calbiochem
Description: In vitro kinase assay: peptide phosphorylation by PKC-alpha. The method, then:
(§1) Catalytically active preparations of the kinases of interest were either purchased or prepared. Purchased and tested active kinase preparations including the following: PKC-alpha, PKC-delta, PKC-epsilon, PKC-zeta, PKC-mu, PKA, PKG from Calbiochem, ROK alpha/ROCK-II, active from Upstate Biotechnology, and AKT1 from Panvera.
(§2) The conditions of the kinase assay and the amount of active kinase used varied with the kinase and with the accuracy needed. For a typical experiment, 5-20 ng of kinase was used per well and each peptide pool was assayed in duplicate wells. Note that the absolute amount of kinase used was not usually a critical parameter, because the desired information related to specificity of the kinase not its absolute activity, and robustness of the assay depends on comparisons of the same amount of kinase on different peptides. The combination of kinase concentration and assay duration was modified to assure that the stoichiometry of peptide phosphorylation never exceeded 5%. The choice of kinase buffer depended on the kinase being analyzed. For studies of PKC, 100 mM HEPES, 0.05% Triton-X100, 1 mM CaCl2, 20 mM MgCl2, 0.2 mg/ml phosphatidyl serine (Avanti Polar Lipids), PMA 100 ng/ml was typically used. The lipid stock was prepared by transferring 3 mg phosphatidyl serine into iced mixture of 450 μl water plus 50 μl of 10% Triton-X100, sonicating 10 times on ice for 1 sec each.
(§3) The kinase reaction mixture was assembled by sequential addition to a tube held on ice of: 5 μl peptide (100 μM for final concentration of 10 μM), 15 μl of kinase (typically 5 ng/well, in appropriate kinase buffer), 30 μl of ATP (1 uCi/well of ^32P-gamma ATP in a stock of 167 μM cold ATP in the kinase buffer; for final concentration for 100 μM ATP). The mixture was rapidly warmed to desired reaction temperature (30° C. for PKC) and incubated for the desired duration (usually 10 minutes). The kinase assay was terminated by transfer to 4° C. water batch, and rapid addition of an equal volume (50 μl) of stop solution [0.1M ATP+0.1M EDTA in water, pH 8].
(§4) The peptides were then captured from the reaction mixture by transfer to a Reacti-Bind Streptavidin High Binding Capacity Coated Plates (HBC) (Pierce Biotechnology) as follows. The HBC plates were pre-rinsed three times with PBS/Tween PBS/Tween20 0.05% (PBS/Tween). Part of all of the reaction mixture was then transferred wells of a HBC plate pre-filled with 90 μl of phosphate-buffered saline (PBS); typically each aliquots of each phosphorylation reaction were transferred to duplicate HBC plates to assure accuracy by additional replication
(§5) For kinase assays done at the standard peptide concentration of 10 μM, the peptide concentration in the reaction mixture becomes 5 μM after addition of the stop solution; consequently 10 μl of the reaction (50 pMoles of peptide) was transferred to the HBC plate. More generally, the amount of reaction mixture transferred was estimated to be about 50 pMoles of peptide. […] The HBC plates were incubated for 0.5 to 1.5 hr at room temperature for complete binding of biotinylated peptides to plate-bound streptavidin. The HBC plates were then washed extensively with PBS/Tween. Five washes were done routinely and additional wash steps were added if the wash solution removed from the plate had measurable radioactivity as detected using a Geiger counter. This step is essential to obtaining a good the signal to noise ratio because the fraction of radioactivity incorporated in the peptides was a tiny fraction of the total in the reaction mixture. The wells were air-dried. A volume of 40-50 μl of microScint-20 (Packard Instruments) was added to each well. The plates were covered with stick-on film sheet. Radioactive emissions were measured in a TopCount NXT Microplate Scintillation and Luminescence Counter (Packard Instruments). Typically samples were counted for 5 minutes (or more) to improve the signal to noise ratio when counts were low. […]

The next test deals with T3, PKC-epsilon (Homo sapiens, UniProt Q02156).
T3 construct: purchased Calbiochem
T3 sequence (Q02156 1-737): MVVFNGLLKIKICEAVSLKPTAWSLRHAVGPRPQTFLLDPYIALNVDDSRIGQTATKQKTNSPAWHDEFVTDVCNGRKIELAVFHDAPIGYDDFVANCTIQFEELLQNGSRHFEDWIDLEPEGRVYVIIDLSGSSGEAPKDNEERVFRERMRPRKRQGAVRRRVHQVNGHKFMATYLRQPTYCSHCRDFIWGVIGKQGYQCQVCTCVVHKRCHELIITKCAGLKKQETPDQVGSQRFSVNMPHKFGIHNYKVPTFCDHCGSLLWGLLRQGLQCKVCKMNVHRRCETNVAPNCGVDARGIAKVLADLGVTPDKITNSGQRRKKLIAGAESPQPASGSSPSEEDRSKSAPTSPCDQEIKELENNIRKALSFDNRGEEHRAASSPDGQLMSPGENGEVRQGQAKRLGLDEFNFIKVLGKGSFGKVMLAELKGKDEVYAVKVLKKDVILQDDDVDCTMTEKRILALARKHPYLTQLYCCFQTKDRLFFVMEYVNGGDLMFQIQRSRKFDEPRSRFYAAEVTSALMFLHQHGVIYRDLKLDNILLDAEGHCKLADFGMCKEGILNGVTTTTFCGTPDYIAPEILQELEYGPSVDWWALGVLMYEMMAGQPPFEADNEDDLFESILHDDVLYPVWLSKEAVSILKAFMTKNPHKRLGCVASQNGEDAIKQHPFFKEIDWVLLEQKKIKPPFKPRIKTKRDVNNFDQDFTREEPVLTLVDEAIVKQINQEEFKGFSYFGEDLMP
Description: In vitro kinase assay: peptide phosphorylation by PKC-epsilon. As to the method:
as §1, §2, §3, §4, §5

T1 sequence (Q05655 whole entry): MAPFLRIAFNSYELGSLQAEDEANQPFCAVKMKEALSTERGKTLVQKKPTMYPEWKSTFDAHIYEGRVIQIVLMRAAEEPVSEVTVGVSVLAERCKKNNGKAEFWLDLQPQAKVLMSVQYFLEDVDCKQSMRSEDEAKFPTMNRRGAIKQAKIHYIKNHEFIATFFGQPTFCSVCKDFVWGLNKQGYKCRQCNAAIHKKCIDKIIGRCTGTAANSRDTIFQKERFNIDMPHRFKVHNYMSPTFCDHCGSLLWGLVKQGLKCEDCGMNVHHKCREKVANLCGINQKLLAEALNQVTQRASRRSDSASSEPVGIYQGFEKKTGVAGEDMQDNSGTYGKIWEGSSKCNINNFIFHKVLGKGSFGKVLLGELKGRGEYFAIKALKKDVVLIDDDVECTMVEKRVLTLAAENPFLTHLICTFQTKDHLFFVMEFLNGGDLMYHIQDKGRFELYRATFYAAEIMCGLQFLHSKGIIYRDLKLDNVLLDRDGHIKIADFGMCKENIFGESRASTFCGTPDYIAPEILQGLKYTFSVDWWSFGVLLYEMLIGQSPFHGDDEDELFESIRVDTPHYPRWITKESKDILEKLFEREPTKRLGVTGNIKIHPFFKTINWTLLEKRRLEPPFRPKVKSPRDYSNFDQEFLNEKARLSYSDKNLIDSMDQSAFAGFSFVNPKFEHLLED

For the substance 76 (HVRRRRGTFKRSKLRARD) [compound 76], the PKC delta phosphorylation with PKC-delta was 100%. The PKC alpha phosphorylation with PKC-alpha is 62%. In addition, in the test with PKC-epsilon, the PKC-epsilon phosphorylation is recorded as 100%.
In the case of 77 (KKKKRASFKRKSSKKG) [compound 77], the PKC delta phosphorylation with PKC-delta was found to be 76%. Further, the PKC alpha phosphorylation in the test with PKC-alpha is reported as 100%. Also, the PKC-epsilon phosphorylation in the test with PKC-epsilon is on record as 71%.
In the same order, the values of 78 (KFARKSTRRSIRLPE) [compound 78] are 52%, 69% and 84%.
For the substance 79 (NRKKKRTSFKRKA) [compound 79], the PKC delta phosphorylation with PKC-delta is given as 66%. Moreover, the PKC alpha phosphorylation in the test with PKC-alpha came out at 50%. Further, in the test with PKC-epsilon, the PKC-epsilon phosphorylation is recorded as 92%.
80 (KKKKKRFSFKKSFKL) [compound 80]: the PKC delta phosphorylation with PKC-delta came out at 24%. For the same substance, the PKC alpha phosphorylation with PKC-alpha was 65%. In addition, the PKC-epsilon phosphorylation with PKC-epsilon is listed as 71%.
Turning to 82 (PRLIRRGSKKRPAR) [compound 82], the PKC delta phosphorylation with PKC-delta came to 40%. In addition, in the test with PKC-alpha, the PKC alpha phosphorylation is reported as 61%. Also, the PKC-epsilon phosphorylation in the test with PKC-epsilon is on record as 72%.
The like results for 83 (RKIPKRPGSVHRTPSRQ) [compound 83] were, in that order, 38%, 41% and 47%.
For 84 (QKKSRLRRRASQLKI) [compound 84], the PKC delta phosphorylation with PKC-delta is 34%. Moreover, in the test with PKC-alpha, the PKC alpha phosphorylation is given as 39%. In addition, in the test with PKC-epsilon, the PKC-epsilon phosphorylation worked out at 52%.
The like results for 85 (RFARKGSLRQKNV) [compound 85] were, in that order, 34%, 42% and 86%.
The like results for 86 (RQRKRKLSFRRRTDKD) [compound 86] were, in that order, 42%, 47% and 63%.
In the same order, the values of 89 (EYLERRASRRRAV) [compound 89] are 20%, 37% and 45%.
For the substance 90 (AQIVKRASLKRGKQ) [compound 90], the PKC delta phosphorylation with PKC-delta is listed as 32%. For the same substance, in the test with PKC-alpha, the PKC alpha phosphorylation turned out to be 40%. Also, the PKC-epsilon phosphorylation in the test with PKC-epsilon was found to be 49%.
In the same order, the values of 92 (DGQKRKKSLRKKLD) [compound 92] are 17%, 36% and 51%.
Turning to 93 (AARKKRISVKKKQEQ) [compound 93], the PKC delta phosphorylation with PKC-delta is recorded as 35%. Further, in the test with PKC-alpha, the PKC alpha phosphorylation amounted to 34%. Besides, the PKC-epsilon phosphorylation in the test with PKC-epsilon stood at 40%.
Turning to 94 (KLAVGRHSFSRRSGV) [compound 94], the PKC delta phosphorylation in the test with PKC-delta came out at 12%. In addition, in the test with PKC-alpha, the PKC alpha phosphorylation is 34%. In addition, in the test with PKC-epsilon, the PKC-epsilon phosphorylation is given as 13%.
The like results for 95 (KKKFRTPSFLKKSKK) [compound 95] were, in that order, 25%, 34% and 31%.
For 96 (RGFLRSASLGRRASFHLE) [compound 96], the PKC delta phosphorylation with PKC-delta is 18%. The PKC alpha phosphorylation with PKC-alpha stood at 40%. Moreover, in the test with PKC-epsilon, the PKC-epsilon phosphorylation was 41%.
In the same order, the values of 99 (AGWRKKTSFRKPKED) [compound 99] are 17%, 37% and 27%.
The like results for 100 (WKGKRRSKARKKRK) [compound 100] were, in that order, 22%, 14% and 13%.
In the same order, the values of 101 (GAPPRRSSIRNAH) [compound 101] are 13%, 32% and 19%.
For the substance 102 (AGSFKRNSIKKIV) [compound 102], the PKC delta phosphorylation with PKC-delta came to 14%. Moreover, the PKC alpha phosphorylation with PKC-alpha was determined as 35%. Moreover, the PKC-epsilon phosphorylation with PKC-epsilon is recorded as 14%.
In the case of 103 (LLKKRDSFRTPRDSKLE) [compound 103], the PKC delta phosphorylation with PKC-delta is given as 12%. For the same substance, the PKC alpha phosphorylation with PKC-alpha was determined as 32%. The PKC-epsilon phosphorylation in the test with PKC-epsilon came out at 21%.
On to 104 (EKIKRSSLKKVDSLKK) [compound 104], for which the PKC delta phosphorylation with PKC-delta stood at 10%. In addition, the PKC alpha phosphorylation with PKC-alpha was determined as 34%. Also, the PKC-epsilon phosphorylation with PKC-epsilon is given as 17%.
Take 105 (ALRRPSLRREADD) [compound 105]: the PKC delta phosphorylation with PKC-delta was 9%. Also, in the test with PKC-alpha, the PKC alpha phosphorylation is recorded as 26%. Also, the PKC-epsilon phosphorylation with PKC-epsilon was found to be 29%.
For 106 (EILSRRPSYRKILND) [compound 106], the PKC delta phosphorylation in the test with PKC-delta turned out to be 9%. Moreover, the PKC alpha phosphorylation with PKC-alpha is 23%. The PKC-epsilon phosphorylation with PKC-epsilon was 31%.
The like results for 107 (QKRHARVTVKYDRRE) [compound 107] were, in that order, 10%, 18% and 7%.
In the same order, the values of 108 (KATTKKRTLRKNDRK) [compound 108] are 6%, 19% and 8%.
In the same order, the values of 109 (KEVVRTDSLKGRRGR) [compound 109] are 7%, 21% and 26%.
Consider 110 (EGGDRRASGRRK) [compound 110], for which the PKC delta phosphorylation in the test with PKC-delta is given as 5%. Also, in the test with PKC-alpha, the PKC alpha phosphorylation amounted to 30%. The PKC-epsilon phosphorylation in the test with PKC-epsilon is on record as 4%.
The like results for “111 (KKKRFSFKKSFKLSGFSFKK) [compound 111]” were, in that order, 16%, 11% and 12%.
Turning to 112 (KRPGKKGSNKRPGKR) [compound 112], in the test with PKC-delta, the PKC delta phosphorylation turned out to be 8%. For the same substance, the PKC alpha phosphorylation with PKC-alpha amounted to 10%. For the same substance, the PKC-epsilon phosphorylation with PKC-epsilon is listed as 11%.
